B1: SiaT21: sialyltransferase of Vibrio harveyi, acc. WP_017817635, SEQ ID NO: 21 (protein, listed as Vibrio harveyi)
chain: MDSSPENTSSTLEIYIDSATLPSLQHMVKIIDEQSGNKKLINWKRYPIDDELLLDKINALSFSDTTDLTRYMESILLIGDIKRVVINGNSLSNYNIVGVMRSINALGLDLDVEINFYDDGSAEYVRLYNFSQLPEAERELLVSMSKNNILAAVNGIGSYDSGSPENIYGFAQIYPATYHMLRADIFDTDLEIGLIRDILGDNVKQMKWGQFLGFNEEQKELFYQLTSFNPDKIQAQYKESPNKNFVFVGTNSRSATAEQQINIIKEAKKLDSEIIPNSIDGYDLFFKGHPSATYNQQIVDAHDMTEIYNRTPFEVLAMTSSLPDAVGGMGSSLFFSLPKTVETKFIFYKSGTDIESNALIQVMLKLGIITDEKVRFTTDIK
B2: SiaT22: sialyltransferase of Streptococcus entericus, acc. WP_018369230, SEQ ID NO: 13 (protein, listed as Streptococcus entericus)
chain: MKKVYFCHTVYHLLITLCKISVEEQVEIIVFDTVSNHELIVQKIRDVFVNTTVLFAEQNTDFSILEIDRATDIYVFNDWTPIGAYLRKNKLFYHLIEDGYNYHEYNVYANALTMKRRLLNFVLRREEPSGFSRYVRSIEVNRVKYLPNDCRKSKWVEKPRSALFENLVPEHKQKIITIFGLENYQDSLRGVLVLTQPLVQDYWDRDITTEEEQLEFYRQIVESYGEGEQVFFKIHPRDKVDYSSLTNVIFLKKNVPMEVYELIADCHFTKGITHSSTALDFLSCVDKKITLKQMKANS
B3: SiaT17: sialyltransferase of Photobacterium phosphoreum JT-ISH-467, acc. BAF63530, SEQ ID NO: 8 (protein, listed as Photobacterium phosphoreum)
chain: MGCNSDSKHNNSDGNITKNKTIEVYVDRATLPTIQQMTQIINENSNNKKLISWSRYPINDETLLESINGSFFKNRPELIKSLDSMILTNEIKKVIINGNTLWAVDVVNIIKSIEALGKKTEIELNFYDDGSAEYVRLYDFSRLPESEQEYKISLSKDNIQSSINGTQPFDNSIENIYGFSQLYPTTYHMLRADIFETNLPLTSLKRVISNNIKQMKWDYFTTFNSQQKNKFYNFTGFNPEKIKEQYKASPHENFIFIGTNSGTATAEQQIDILTEAKKPDSPIITNSIQGLDLFFKGHPSATYNQQIIDAHNMIEIYNKIPFEALIMTDALPDAVGGMGSSVFFSLPNTVENKFIFYKSDTDIENNALIQVMIELNIVNRNDVKLISDLQ
B4: SiaT31: sialyltransferase of Alistipes sp. CAG:268, acc. CDC95697, SEQ ID NO: 22 (protein, listed as Alistipes sp.)
chain: MASCSDDDKEQTGFQIDDGSGFLSLDAAARSGSIAITANNSWSVTQDKDSEWLTLSTTSGAAGRTEIGIMLEANPGEARNAGLTFNSGGRTYPFVITQSAHVTADFDDADHCFYITFGTLPTLYAGLHVLSHDKPSYVFFQRSQTFRPEEFPAHAEVTIAADPSANATDEDMERMRTAMKQQILKINVEDPTAVFGLYVDDLRCGIGYDWFVAQGIDSTRVKVSMLSDGTGTYNNFYNYFGDPATAEQNWENYAAQVEALDWQHGGRFPETRMPDGFDFYEWPYYLATRPNYRLVLQDDDLLEATSPFMTERLQQMRTESKQPYELLASLPAEARQRFFRMAGFDYDAFAALFDASPKKNLVIIGTSHTSEESEAQQAAYVERIIGDYGTAYDIFFKPHPADSSSSNYEERFEGLTLLPGQMPFEIFVWSLLDKVDLIGGYSSTVFLTVPVEKTGFIFAANAESLPRPLNVLFRNAEHVRWIQ
B5: SiaT24: sialyltransferase of Avibacterium paragaffinarum, acc. WP_021724759, SEQ ID NO: 9 (protein, listed as Avibacterium paragallinarum)
chain: MRKIITFFSLFFSISAWCQKMEIYLDYASLPSLNMILNLVENKNNEKVERIIGFERFDFNKEILNSFSKERIEFSKVSILDIKEFSDKLYLNIEKSDTPVDLIIHTNLDHSVRSLLSIFKTLSPLFHKINIEKLYLYDDGSGNYVDLYQHRQENISAILIEAQKKLKDALENRETDTDKLHSLTRYTWHKIFPTEYILLRPDYLDIDEKMQPLKHFLSDTIVSMDLSRFSHFSKNQKELFLKITHFDQNIFNELNIGTKNKEYKTFIFTGTTTWEKDKKKRLNNAKLQTEILESFIKPNGKFYLGNDIKIFFKGHPKGDDINDYIIRKTGAEKIPANIPFEVLMMTNSLPDYVGGIMSTVYFSLPPKNIDKVVFLGSEKIKNENDAKSQTLSKLMLMLNVITPEQIFFEEMPNPINF
B6: SiaT30: sialyltransferase of Haemophilus parahaemolyticus HK385, acc. EIJ71207, SEQ ID NO: 19 (protein, listed as Haemophilus parahaemolyticus)
chain: MTEQYIKNVEVYLDYATIPTLNYFYHFTENKDDIATIRLFGLGRFNISKSIIESYPEGIIRYCPIIFEDQTAFQQLFITLLTEDSFCQYRFNFHINLFHSWKMLIPLLHIIWQFKHKVLDIKLNFYDDGSEGLVTLSKIEQNYSSEILQKIIDIDSQSFYADKLSFLDEDIARYLWNSLFESHYYLLNDFLLKNEKLSLLKNSIKYCHIMDLERYLQFTQEEKDFFNELLGINIQSLEDKIKIFQQKKTFIFTGTTIFSLPKEEEETLYRLHLNAILNYIHPNGKYFIGDGFTLVIKGHPHQKEMNSRLEKSFEKAVMLPDNIPFEILYLIGCKPDKIGGFVSTSYFSCDKKNIADLLFISARQEEVRKNDYLFNIQYQLRDMMIKTGFIQEEKTHFYSDIPIFIS

Columns and labels:
[1] = In vitro sialylation of LNT by protein extracts, LST-a/-b quantified by LC-MS/MS; type: biochemical; settings: 5 mM LNT, 10 mM CMP-Neu5Ac, 16 hours, LC-MS/MS; relative quantity; n.d.: not detectable
Description: Escherichia coli BL21(DE3) harbouring plamids encoding for 100 sialyltransferases were grown at 30° C. in 100 ml shake flasks filled with 20 ml of 2YT medium supplemented with ampicillin 100 μg ml^−1. When the cultures reached an OD600 of 0.1 to 0.3, gene expression was induced by addition of 0.3 mM IPTG and the incubation was continued for 12 to 16 hours. Cells were harvested by centrifugation and mechanically disrupted in a defined volume of 50 mM Tris-HCl pH7.5 using glass beads. The protein extract was kept on ice until the assay started. The in vitro assay was carried out in a total volume of 25 μl including 50 mM Tris-HCl pH7.5, 5 mM MgCl2, 10 mM CMP-Neu5Ac and 5 mM LNT. The assay started with the addition of 3 μl protein extract and continued for 16 hours. Product formation was determined by mass spectrometry.
Mass spectrometry analysis was performed by MRM (multiple reaction monitoring) using a LC Triple-Quadrupole MS detection system. Precursor ions are selected and analyzed in quadrupole 1, fragmentation takes place in the collision cell using argon as CID gas, selection of fragment ions is performed in quadrupole 3. Chromatographic separation of lactose, 3′-Sialyllactose and 6′-Sialyllactose after dilution of culture supernatant 1:100 with H2O (LC/MS Grade), was performed on a XBridge Amide HPLC column (3.5 μm, 2.1×50 mm (Waters, USA) with a XBridge Amide guard cartridge (3.5 μm, 2.1×10 mm) (Waters, USA). Column oven temperature of the HPLC system was 50° C. The mobile phase was composed of acetonitrile:H2O with 10 mM ammonium acetate. A 1 μl sample was injected into the instrument; the run was performed for 3.60 min with a flow rate of 400 μl/min. 3′-Sialyllactose and 6′-Sialyllactose were analyzed by MRM in ESI positive ionization mode. The mass spectrometer was operated at unit resolution. Sialyllactose forms an ion of m/z 656.2 [M+Na]. The precursor ion of Sialyllactose was further fragmented in the collision cell into the fragment ions m/z 612.15, m/z 365.15 and m/z 314.15. Collision energy, Q1 and Q3 Pre Bias were optimized for each analyte individually. Chromatographic separation of lactose, LNT-II, LNT and LST-a or -b after dilution of particle-free biocatalysis-reaction or crude extract, respectively, 1:50 with H2O (LC/MS Grade), was performed on a XBridge Amide HPLC column (3.5 μm, 2.1×50 mm (Waters, USA) with a XBridge Amide guard cartridge (3.5 μm, 2.1×10 mm) (Waters, USA). Column oven was run at 35° C. The mobile phase was composed of acetonitrile:H2O with 0.1% ammonium hydroxide. A 1 μl sample was injected into the instrument; the run was performed for 3.50 min with a flow rate of 300 μl/min. Lactose, LNT-II, LNT as well as LST-a and -b were analyzed by MRM in ESI negative ionization mode. The mass spectrometer was operated at unit resolution. Lactose forms an ion of m/z 341.00 [M−H]. The precursor ion of Lactose was further fragmented in the collision cell into the fragment ions m/z 179.15, m/z 161.15 and m/z 101.05. LNT-II forms an ion of m/z 544.20 [M−H]. The precursor ion of LNT-II was further fragmented into the fragment ions m/z 382.10, m/z 161.00 and m/z 112.90. LNT forms an ion of m/z 706.20 [M−H]. The precursor ion of LNT was further fragmented into the fragment ions m/z 382.10, m/z 202.10 and m/z 142.00. LST-a and -b forms an ion of m/z 997.20 [M−H]. The precursor ion of LST-a and-b was further fragmented into the fragment ions m/z 290.15, m/z 202.15 and m/z 142.15. Collision energy, Q1 and Q3 Pre Bias were optimized for each analyte individually. Quantification methods were established using commercially available standards (Carbosynth, Compton, UK).
Twenty eight genes were identified to produce LST-a whereas only 6 enzymes synthesized LST-b. […] Irrespectively of the protein overexpression level, sialyltransferases that produced best were selected for determination of Km and Vmax.

[2] = In vivo screening in E. coli #1363/#1730 with lactose as acceptor, sialyllactose identified by TLC; type: cell-based, Escherichia coli BL21(DE3); settings: 1.5 mM lactose, 72 to 96 hours, qualitative via TLC
Description: Escherichia coli BL21(DE3) #1363 and #1730 harbouring plasmids encoding for 100 sialyltransferases were grown at 30° C. in 100 ml shake flasks filled with 20 ml of mineral salts medium (Samain et al., J. Biotech. 1999, 72:33-47) supplemented with 2% (wt/vol) glucose, ampicillin 100 μg ml^−1, kanamycin 15 μg ml^−1 and zeocin 40 μg ml^−1. When the cultures reached an OD600 of 0.1 to 0.3, gene expression was induced by addition of 0.3 mM IPTG. After an incubation for one hour, 1.5 mM lactose was added to #1363 cultures whereas 1.5 mM lactose as well as 1.5 mM sialic acid was added to #1730 cultures. The incubation continued for 72 to 96 hours. Then, cells were harvested by centrifugation and mechanically disrupted in a defined volume using glass beads. Subsequently, samples were applied to thin layer chromatography (TLC) on Silica Gel 60 F254 (Merck KGaA, Darmstadt, Germany). A mixture of butanol:acetone:acetic acid:H2O (35/35/7/23 (v/v/v/v)) was used as mobile phase. For detection of the separated substances, the TLC plate was soaked with thymol reagent (0.5 g thymol solved in 95 ml ethanol, 5 ml sulfuric acid added) and heated.
In the entire screening, thirty two genes were identified to encode for α-2,3-sialyltransferases, thus producing 3′-SL. 19 enzymes synthesized 6′-SL and were depicted as α-2,6-sialyltransferases. An α-2,3- as well as an α-2,6-sialyltransferase activity could only be observed for 3 enzymes. […] The screening appeared highly accurate since the described activities of extensively characterized sialyltransferases, e. g. […] Regarding the product formation, the experimental setting allowed a semi-quantitative comparison of the screened enzymes. But to achieve deeper knowledge about their kinetic properties, the 3 potentially best performing α-2,3- and α-2,6-sialyltransferases were applied to in vitro assays.

Molecule	Relative efficacy of sialyltransferases regarding in-vitro production of sialyllacto-N-tetraoses: LST-a [1]	Production of sialyllactose in-vivo [2]
B1	12	3′-SL
B2	564	3′-SL
B3	1.24 × 10^3	3′-SL
B4	4	3′-SL
B5	835	3′-SL
B6	17	3′-SL

From US12692524B2, “Sialyltransferases and their use in producing sialylated oligosaccharides” (Chr. Hansen A/S, priority 2017, dated 2026)
